# According to paper PMC4892509, “Binding of the Fkh1 Forkhead Associated Domain to a Phosphopeptide within the Mph1 DNA Helicase Regulates Mating-Type Switching in Budding Yeast” (PLoS Genetics, 2016):
# Non-standard residues stand in square brackets, D forms with d. No end group written: not given here. *: point of attachment. 5FAM = O=C1OC2(c3ccc(O)cc3Oc3cc(O)ccc32)c2ccc(C(=O)*)cc21; pT = C[C@@H](OP(=O)(O)O)[C@H](N)C(=O)O; Ahx = NCCCCCC(=O)O
# T1: Fkh1-6xHis (Saccharomyces cerevisiae, UniProt P40466)
# T1 construct: C-terminally His-tagged full length Fkh1 protein was expressed from a pET28b expression vector in Rosetta E. coli; made in house; host or cells: Rosetta E. coli (pET28b)
# T1 sequence (P40466 1-484): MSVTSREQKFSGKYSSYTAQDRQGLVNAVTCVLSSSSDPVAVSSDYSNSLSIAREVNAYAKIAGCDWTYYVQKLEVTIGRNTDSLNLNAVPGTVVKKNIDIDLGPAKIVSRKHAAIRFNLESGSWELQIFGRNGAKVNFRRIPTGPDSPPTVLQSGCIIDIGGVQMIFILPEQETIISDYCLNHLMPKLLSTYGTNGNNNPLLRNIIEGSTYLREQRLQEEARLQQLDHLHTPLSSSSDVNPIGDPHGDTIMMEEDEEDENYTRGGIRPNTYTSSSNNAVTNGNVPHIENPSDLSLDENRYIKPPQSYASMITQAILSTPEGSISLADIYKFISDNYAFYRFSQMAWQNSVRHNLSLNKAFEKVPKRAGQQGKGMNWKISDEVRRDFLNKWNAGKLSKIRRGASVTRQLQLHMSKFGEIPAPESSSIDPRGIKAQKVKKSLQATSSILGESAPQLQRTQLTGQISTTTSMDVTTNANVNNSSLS
# T2: Recombinant Fkh1-6xHis (S. cerevisiae, UniProt P40466 1-484)
# T2 construct: Fkh1, S. cerevisiae, full length; also called His-tagged Fkh1; purified Fkh1; source: Rosetta E. coli (pET28b), purified (nickel chromatography); not shown: 6xHis, C-terminal, kept
# T2 sequence (looked up): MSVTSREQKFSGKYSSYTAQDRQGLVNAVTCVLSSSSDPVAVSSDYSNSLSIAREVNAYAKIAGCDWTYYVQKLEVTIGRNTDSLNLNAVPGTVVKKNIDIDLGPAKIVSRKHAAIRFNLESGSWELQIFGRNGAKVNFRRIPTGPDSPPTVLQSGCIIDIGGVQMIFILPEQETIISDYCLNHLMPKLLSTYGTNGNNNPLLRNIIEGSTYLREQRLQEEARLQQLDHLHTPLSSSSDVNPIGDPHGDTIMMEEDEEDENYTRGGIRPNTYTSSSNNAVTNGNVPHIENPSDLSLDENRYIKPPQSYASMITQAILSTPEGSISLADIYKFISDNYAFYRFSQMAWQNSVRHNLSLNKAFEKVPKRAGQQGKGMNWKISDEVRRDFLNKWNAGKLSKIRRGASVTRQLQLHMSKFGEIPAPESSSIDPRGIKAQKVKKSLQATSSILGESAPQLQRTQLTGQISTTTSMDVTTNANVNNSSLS
# What was measured:
# Fkh1 = Fkh1 (UniProt P40466); assay: fluorescence anisotropy titration
# Fkh1-6xHis = biological target: T1, Fkh1-6xHis; assay: Fluorescence anisotropy binding of Mph1-derived peptides to recombinant Fkh1-6xHis
# Description: To this end, recombinant Fkh1-6xHis was purified from E. coli and its ability to bind an 18-residue peptide representing Mph1(772–789) was assessed by fluorescence anisotropy (Fig 6).
# (B) Peptide binding assay of Fkh1-6xHis and Mph1-derived peptides using fluorescence anisotropy. Binding reactions contained the indicated concentration of purified His-tagged Fkh1 and 3 nM 5-carboxyfluorescein labeled Mph1-derived peptide (5cf-aha-[sequence]) with threonines phosphorylated or unmodified, as indicated.
# Peptides (constant final concentration of 3 nM) were mixed with titrations of purified Fkh1-6xHis protein in binding buffer (50 mM HEPES pH 7.0, 200 mM KCl, 10% glycerol, 5 mM BME, 1 mM EDTA, 1 mM EGTA, 5 mM MgOAc, 0.02% NP-40, protease inhibitors (Calbiotech)). Polarization at each concentration was measured in triplicates in 384-well polystyrene black microplates (Thermo Fisher Scientific #262260) by a Biotek Synergy H4 multimode plate reader (light source: xenon flash, offset from top: 7 mm, sensitivity: 60%, excitation: 485/20 nm, emission: 528/20 nm, both parallel and perpendicular, normal read speed). Fraction bound (Fb) at each concentration was calculated based on the corresponding polarization values (P): Fbc = (Pc—Pmin) / (Pmax—Pmin), where Pmin is the polarization value of the no-protein control and Pmax is the polarization value of the saturation value for that peptide. […]
# Recombinant Fkh1-6xHis = biological target: T2, Recombinant Fkh1-6xHis; assay: fluorescence polarisation; fluorescence anisotropy: 3 nM 5-carboxyfluorescein labeled peptide, titration of purified Fkh1-6xHis; 50 mM HEPES pH 7.0, 200 mM KCl, 10% glycerol, 5 mM BME, 1 mM EDTA, 1 mM EGTA, 5 mM MgOAc, 0.02% NP-40; Fb = [protein] / ([protein] + Kd); settings: both partners purified
molecule,measurement,setting,value
Mph1 772-789 (from UniProt P40562) pT785 peptide,binding against the reference,"Fkh1; reference: unphosphorylated peptide, sites T785",stronger
Mph1 772-789 (from UniProt P40562) pT776 peptide,binding against the reference,"Fkh1; reference: unphosphorylated peptide, sites T776",stronger
CC(C)C[C@H](NC(=O)[C@H](CO)NC(=O)[C@H](CO)NC(=O)[C@H](CO)NC(=O)[C@H](C)NC(=O)[C@H](CCC(=O)O)NC(=O)[C@H](CCC(=O)O)NC(=O)[C@@H](NC(=O)[C@H](CO)NC(=O)[C@H](CC(=O)O)NC(=O)[C@H](CC(N)=O)NC(=O)[C@H](CCC(=O)O)NC(=O)CCCCCNC(=O)c1ccc2c(c1)C(=O)OC21c2ccc(O)cc2Oc2cc(O)ccc21)[C@@H](C)OP(=O)(O)O)C(=O)N[C@@H](CCC(=O)O)C(=O)N[C@H](C(=O)N[C@@H](CCC(=O)O)C(=O)N[C@@H](CC(=O)O)C(=O)N[C@@H](CCC(=O)O)C(=O)N[C@@H](CCC(=O)O)C(=O)O)[C@@H](C)OP(=O)(O)O [pT776 pT785],"binding to purified Fkh1, result in words","Fkh1-6xHis; 3 nM labeled peptide, pH 7.0",bound purified Fkh1 efficiently
Mph1 772-789 (from UniProt P40562) pT776 pT785 peptide,binding against the reference,"Fkh1; reference: pT776 peptide, sites T785",stronger
same,binding against the reference,"Fkh1; reference: pT785 peptide, sites T776",stronger
CC(C)C[C@H](NC(=O)[C@H](CO)NC(=O)[C@H](CO)NC(=O)[C@H](CO)NC(=O)[C@H](C)NC(=O)[C@H](CCC(=O)O)NC(=O)[C@H](CCC(=O)O)NC(=O)[C@@H](NC(=O)[C@H](CO)NC(=O)[C@H](CC(=O)O)NC(=O)[C@H](CC(N)=O)NC(=O)[C@H](CCC(=O)O)NC(=O)CCCCCNC(=O)c1ccc2c(c1)C(=O)OC21c2ccc(O)cc2Oc2cc(O)ccc21)[C@@H](C)O)C(=O)N[C@@H](CCC(=O)O)C(=O)N[C@H](C(=O)N[C@@H](CCC(=O)O)C(=O)N[C@@H](CC(=O)O)C(=O)N[C@@H](CCC(=O)O)C(=O)N[C@@H](CCC(=O)O)C(=O)O)[C@@H](C)O [Non-phosphorylated],fold reduced affinity for Fkh1 (non-phosphorylated vs peptide phosphorylated on both T776 and T785),Fkh1-6xHis; relative to peptide phosphorylated on both T776 and T785,> 100 -fold
"{5FAM-Ahx}-ENDS[pT]EEASSSLE[pT]EDEE (Mph1, S. cerevisiae, 18-residue peptide representing Mph1(772–789); source: synthetic peptide) [Mph1(772–789) peptide phosphorylated on both T776 and T785]",Kd,Recombinant Fkh1-6xHis,2.2 µM
"{5FAM-Ahx}-ENDSTEEASSSLETEDEE (Mph1, S. cerevisiae, 18-residue peptide representing Mph1(772–789); source: synthetic peptide) [Mph1(772–789) peptide, non-phosphorylated]",Kd,Recombinant Fkh1-6xHis,271 µM
